Experimental data reported in PMC4546058, “The Energetics of Streptococcal Enolase Octamer Formation: The Quantitative Contributions of the Last Eight Amino Acids at the Carboxy-Terminus” (PLoS ONE, 2015).

Target: the molecule itself
Assay: AUC; sedimentation velocity, Beckman XL-I, 20°C, 30 000-37 000 RPM, TME-SO4 (50 mM Tris, 1 mM MgSO4, 0.1 mM EDTA, 44 mN H2SO4, pH 7.4); c(s) in Sedfit; octamer to 8 monomers

B1: Str enolase DB (Streptococcus pyogenes enolase, sequence of accession number NP_268959.1) (enzyme, UniProt P69949 1-435, looked up)
chain: MSIITDVYAREVLDSRGNPTLEVEVYTESGAFGRGMVPSGASTGEHEAVELRDGDKSRYLGLGTQKAVDNVNNIIAEAIIGYDVRDQQAIDRAMIALDGTPNKGKLGANAILGVSIAVARAAADYLEVPLYTYLGGFNTKVLPTPMMNIINGGSHSDAPIAFQEFMIMPVGAPTFKEGLRWGAEVFHALKKILKERGLVTAVGDEGGFAPKFEGTEDGVETILKAIEAAGYEAGENGIMIGFDCASSEFYDKERKVYDYTKFEGEGAAVRTSAEQVDYLEELVNKYPIITIEDGMDENDWDGWKVLTERLGKRVQLVGDDFFVTNTEYLARGIKENAANSILIKVNQIGTLTETFEAIEMAKEAGYTAVVSHRSGETEDSTIADIAVATNAGQIKTGSLSRTDRIAKYNQLLRIEDQLGEVAQYKGIKSFYNLKK
notes: PDB 3ZLH is the same protein with E77K; also called Streptococcal enolase; source: stored in saturated ammonium sulfate, dialyzed against TME-SO4
- stoichiometry N: 8
